Reference: US20220381770A1

Key:
[1] = target: HCMV pp65495-503/HLA-A2-Fc (Human cytomegalovirus); experiment: flow cytometry of pMHC-Fc-loaded α-Fc-based T-Plex beads stained with BB7.2
[2] = target: Survivin96-104/HLA-A2-Fc-STag; experiment: as above

“αHLA-A2 mAb (Clone BB7.2/BioLegend) of IgG2b isotype (antibody)” showed a fold MFI against pMHC-pCC-Fc-loaded SAv-based T-Plex beads [1] of 4 fold and a fold MFI against pMHC-pCC-Fc-loaded SAv-based T-Plex beads [2] of 4 fold.
